Laboratory results published in publication PMC2680043, “Characterization of a Novel Small Molecule Subtype Specific Estrogen-Related Receptor α Antagonist in MCF-7 Breast Cancer Cells” (PLoS ONE, 2009).

Experiments:
Experiment in all cases: pull-down; biotinylated coactivator RID bound to streptavidin beaded agarose; in vitro translated [35S]-labeled ERRα added in 1x TBS with 10 µM Compound A, 4 hours at 4°C; SDS gel, phosphorimaging; compared with the DMSO sample
Conditions in all cases: one partner purified
[1] = biological target: T1, GRIP-1 receptor interaction domain (RID), aa 565-798, biotinylated (UniProt Q61026 565-798, biotinylated (sites not given))
T1 construct: also called GRIP-1 RID; SRC-2
T1 sequence (looked up): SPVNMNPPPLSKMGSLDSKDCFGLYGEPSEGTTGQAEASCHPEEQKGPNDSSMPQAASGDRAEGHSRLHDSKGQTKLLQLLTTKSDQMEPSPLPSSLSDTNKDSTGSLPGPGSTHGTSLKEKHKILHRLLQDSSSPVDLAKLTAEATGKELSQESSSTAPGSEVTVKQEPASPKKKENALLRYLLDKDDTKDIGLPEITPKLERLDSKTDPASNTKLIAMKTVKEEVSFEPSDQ

[2] = biological target: T2, PGC-1α receptor interaction domain (RID), aa 1-338, biotinylated (UniProt Q9UBK2 1-338, biotinylated (sites not given))
T2 construct: also called PGC-1α RID; PPARGC1A
T2 sequence (looked up): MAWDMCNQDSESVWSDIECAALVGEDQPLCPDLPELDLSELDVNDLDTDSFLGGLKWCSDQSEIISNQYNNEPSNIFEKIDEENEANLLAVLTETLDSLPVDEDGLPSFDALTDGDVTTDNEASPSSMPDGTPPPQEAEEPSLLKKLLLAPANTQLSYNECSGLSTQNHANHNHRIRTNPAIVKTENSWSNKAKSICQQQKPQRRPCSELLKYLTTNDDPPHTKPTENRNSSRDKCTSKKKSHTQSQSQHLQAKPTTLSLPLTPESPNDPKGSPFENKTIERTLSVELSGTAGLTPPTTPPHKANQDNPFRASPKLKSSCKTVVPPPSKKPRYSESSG

[3] = biological target: T3, AIB1 receptor interaction domain (RID), aa 557-773, biotinylated (UniProt Q9Y6Q9 557-773, biotinylated (sites not given))
T3 construct: also called AIB1 RID; SRC-3
T3 sequence (looked up): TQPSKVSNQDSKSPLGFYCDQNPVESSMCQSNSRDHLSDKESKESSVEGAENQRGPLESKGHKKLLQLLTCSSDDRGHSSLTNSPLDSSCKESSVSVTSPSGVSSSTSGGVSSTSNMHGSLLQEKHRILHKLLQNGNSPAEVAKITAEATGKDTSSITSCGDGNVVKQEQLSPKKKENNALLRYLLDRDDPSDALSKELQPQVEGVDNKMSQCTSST

B1: full-length human estrogen-related receptor α (ERRα), [35S]methionine-labeled (receptor, UniProt P11474 1-423, looked up)
chain: MSSQVVGIEPLYIKAEPASPDSPKGSSETETEPPVALAPGPAPTRCLPGHKEEEDGEGAGPGEQGGGKLVLSSLPKRLCLVCGDVASGYHYGVASCEACKAFFKRTIQGSIEYSCPASNECEITKRRRKACQACRFTKCLRVGMLKEGVRLDRVRGGRQKYKRRPEVDPLPFPGPFPAGPLAVAGGPRKTAAPVNALVSHLLVVEPEKLYAMPDPAGPDGHLPAVATLCDLFDREIVVTISWAKSIPGFSSLSLSDQMSVLQSVWMEVLVLGVAQRSLPLQDELAFAEDLVLDEEGARAAGLGELGAALLQLVRRLQALRLEREEYVLLKALALANSDSVHIEDAEAVEQLREALHEALLEYEAGRAGPGGGAERRRAGRLLLTLPLLRQTAGKVLAHFYGVKLEGKVPMHKLFLEMLEAMMD
modifications: [35S]methionine label
notes: estrogen-related receptor alpha, human, full length, amplified from human brain Marathon-ready cDNA and cloned into pcDNA3.1(+); No tag is named for this construct; also called hERRα; ESRRA; source: in vitro translated (TnT coupled reticulocyte lysate system, Promega), [35S]methionine added
[1]
  percent reduction of the interaction with 10 µM Compound A against vehicle (DMSO): 29%
[2]
  percent reduction of the interaction with 10 µM Compound A against vehicle (DMSO): 81%
[3]
  percent reduction of the interaction with 10 µM Compound A against vehicle (DMSO): 35%
